These are literature values, as cited in article PMC8471248.

This data set concerns the target cell-surface GRP78 (Homo sapiens) (UniProt P11021).
UniProt P11021, sequence (P11021 19-654): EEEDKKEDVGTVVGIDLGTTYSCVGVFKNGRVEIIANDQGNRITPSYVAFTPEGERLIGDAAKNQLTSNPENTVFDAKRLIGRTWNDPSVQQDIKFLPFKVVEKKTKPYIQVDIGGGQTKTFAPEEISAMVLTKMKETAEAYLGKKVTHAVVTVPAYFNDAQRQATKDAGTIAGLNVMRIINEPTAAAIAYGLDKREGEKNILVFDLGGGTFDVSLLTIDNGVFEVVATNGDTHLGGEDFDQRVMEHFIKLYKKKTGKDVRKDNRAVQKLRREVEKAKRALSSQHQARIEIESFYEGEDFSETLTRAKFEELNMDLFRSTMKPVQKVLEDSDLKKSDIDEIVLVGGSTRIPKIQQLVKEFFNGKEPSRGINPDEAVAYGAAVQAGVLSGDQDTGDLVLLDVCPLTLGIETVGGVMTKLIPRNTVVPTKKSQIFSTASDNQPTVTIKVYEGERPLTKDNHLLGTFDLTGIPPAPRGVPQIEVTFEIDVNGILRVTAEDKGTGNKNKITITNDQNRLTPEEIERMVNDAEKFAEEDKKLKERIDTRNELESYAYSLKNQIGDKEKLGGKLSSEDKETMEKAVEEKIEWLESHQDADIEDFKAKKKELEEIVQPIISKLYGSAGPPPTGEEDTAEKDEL

Regarding “Activated alpha 2-macroglobulin (from UniProt P01023)”, the dissociation constant Kd was 0.1 nM.
